The test concerns the target αvβ3 (Homo sapiens, UniProt P05106+P06756). The test is described as follows: Cell adhesion assay, αvβ3 overexpressing K562 cells (Kαvβ3) on vitronectin. Format: cell-based. Further details: expressed in transfected cells; host or cells: K562 (human erythroleukemia), gift of Dr. S. D. Blystone. Particulars: 10 μM peptide.

Sequence of αvβ3 (P06756 31-889 limits assumed): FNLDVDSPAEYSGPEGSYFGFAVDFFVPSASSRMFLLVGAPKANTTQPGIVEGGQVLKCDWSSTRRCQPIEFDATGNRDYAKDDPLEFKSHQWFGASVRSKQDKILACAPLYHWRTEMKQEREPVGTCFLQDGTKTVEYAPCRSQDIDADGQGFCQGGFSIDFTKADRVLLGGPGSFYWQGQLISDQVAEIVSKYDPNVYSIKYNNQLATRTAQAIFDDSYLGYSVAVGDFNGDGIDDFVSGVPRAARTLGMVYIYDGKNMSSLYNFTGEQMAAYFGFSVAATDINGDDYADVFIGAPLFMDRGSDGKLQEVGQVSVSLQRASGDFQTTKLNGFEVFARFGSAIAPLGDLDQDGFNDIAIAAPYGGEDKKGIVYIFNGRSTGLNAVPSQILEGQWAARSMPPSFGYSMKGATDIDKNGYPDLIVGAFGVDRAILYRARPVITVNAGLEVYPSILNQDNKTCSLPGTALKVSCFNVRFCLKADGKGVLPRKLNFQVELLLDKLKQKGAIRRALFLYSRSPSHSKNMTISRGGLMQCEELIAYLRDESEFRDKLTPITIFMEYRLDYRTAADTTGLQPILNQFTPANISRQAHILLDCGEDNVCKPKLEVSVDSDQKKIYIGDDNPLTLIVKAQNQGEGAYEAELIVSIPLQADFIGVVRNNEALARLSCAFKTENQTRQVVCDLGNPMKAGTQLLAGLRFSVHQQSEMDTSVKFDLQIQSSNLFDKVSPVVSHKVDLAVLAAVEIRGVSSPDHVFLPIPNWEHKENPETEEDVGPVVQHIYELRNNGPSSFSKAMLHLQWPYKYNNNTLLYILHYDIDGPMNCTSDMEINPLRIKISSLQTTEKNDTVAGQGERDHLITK
Sequence of αvβ3 (P06756 891-1048 partner limits assumed): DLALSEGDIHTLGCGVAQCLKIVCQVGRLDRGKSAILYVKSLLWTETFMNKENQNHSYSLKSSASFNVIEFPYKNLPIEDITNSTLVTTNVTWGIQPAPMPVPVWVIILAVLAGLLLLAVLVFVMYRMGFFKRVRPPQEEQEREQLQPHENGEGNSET
Sequence of αvβ3 (P05106 27-788): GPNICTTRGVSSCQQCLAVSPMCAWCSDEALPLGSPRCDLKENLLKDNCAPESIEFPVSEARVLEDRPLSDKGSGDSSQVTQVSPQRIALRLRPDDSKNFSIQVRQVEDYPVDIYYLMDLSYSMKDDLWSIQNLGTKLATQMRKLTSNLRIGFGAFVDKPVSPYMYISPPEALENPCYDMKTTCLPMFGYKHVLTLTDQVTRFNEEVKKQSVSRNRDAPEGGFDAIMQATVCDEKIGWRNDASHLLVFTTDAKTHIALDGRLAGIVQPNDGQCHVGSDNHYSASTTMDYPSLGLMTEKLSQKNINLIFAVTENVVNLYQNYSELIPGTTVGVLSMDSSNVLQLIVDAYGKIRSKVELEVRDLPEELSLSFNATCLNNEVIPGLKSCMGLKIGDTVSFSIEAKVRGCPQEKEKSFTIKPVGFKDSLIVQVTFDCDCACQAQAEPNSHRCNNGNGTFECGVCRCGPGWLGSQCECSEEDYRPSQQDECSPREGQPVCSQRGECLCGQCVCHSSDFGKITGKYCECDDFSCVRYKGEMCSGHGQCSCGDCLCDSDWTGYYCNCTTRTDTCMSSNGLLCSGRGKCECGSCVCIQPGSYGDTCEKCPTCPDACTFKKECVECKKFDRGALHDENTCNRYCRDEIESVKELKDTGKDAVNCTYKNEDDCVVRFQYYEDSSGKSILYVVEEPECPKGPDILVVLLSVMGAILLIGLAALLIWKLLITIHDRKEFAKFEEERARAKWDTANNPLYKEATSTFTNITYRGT
Procedure: Cell Adhesion and Competitive Assay: Human erythroleukemia K562 cells, stably cotransfected with cDNA of αv or αIIb subunit and β3 or β5 subunits, were kindly provided by Dr. S. D. Blystone (SUNY Upstate Medical University, Syracuse, N.Y.). Cells were maintained in Iscove's Modified Dubecco's Medium (IMDM) supplemented with 10% heat-inactivated fetal bovine serum, 100 IU/ml penicillin, 50 μg/mL streptomycin and 500 μg/mL G418 in a humidified incubator with 5% CO2 at 37° C. […] Cells were used to determine affinity for αvβ3 and cross-reactivity with αvβ5 and αIIbβ3 integrin.
Briefly, 24-well flat-bottom plates were incubated overnight with 5 μg/mL vitronectin. The pre-coated plates were rinsed with PBS, incubated for 1 h at 23° C. with 1% heat-denatured bovine serum albumin, and rinsed again. Then, αvβ3 overexpressing K562 cells were incubated with various concentrations of cyclic RGD peptides or diluents for 1 h at 4° C. Peptide-treated cells (0.2-0.5×106/100 μL/well) were seeded onto pre-coated plates and allowed to adhere for 1 h at 37° C. in 5% CO2. Non-adherent cells were removed with gentle washing, whereas adherent cells were detached by trypsinization and counted. Three different adhesion assays were performed in duplicates.
All synthesized peptides were tested for their ability to inhibit cell adhesion to vitronectin. […]

On to RNPHKGPAT [echi 11-19], for which the “cell adhesion remaining as compared to untreated control cells” value is 97.5%. To “echi6-19: fragment of the RGDechi sequence (SEQ ID NO: 2) (MDDPGRNPHKGPAT)” belongs 99.0%.

For the origin of these results see patent US9309288B2, “Selective αvβ3 receptor peptide antagonist for therapeutic and diagnostic applications” (ADVANCED ACCELERATOR APPLICATIONS, priority 2005, dated 2016).
